For one substance, fold reduction of the affinity against the wild type proteins results are on record in PMC2897767, “Two Distinct Mechanisms for Actin Capping Protein Regulation—Steric and Allosteric Inhibition” (PLoS Biology, 2010).

This assay has as its target GST-V-1 (human) (UniProt P58546). As to the kind of experiment: SPR; GST-fusion protein (GST-V-1, GST-CA or GST-CD) immobilised on a CM5 chip via anti-GST antibodies (up to 200 RU), CP perfused at 20 µl/min; 20°C; 50 mM KCl, 1 mM MgCl2, 0.005% Tween-20, 10 mM imidazole pH 7.0; 1:1 fit, KD from the kinetic rate constants (steady state for several fast-dissociating mutants).

Sequence of GST-V-1 (human) (P58546 whole entry, the tested form may be a part): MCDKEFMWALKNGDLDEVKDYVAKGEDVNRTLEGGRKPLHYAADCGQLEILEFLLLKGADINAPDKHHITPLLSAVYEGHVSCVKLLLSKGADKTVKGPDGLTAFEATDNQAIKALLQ

Substance “CP with mutations of residues which form the “basic triad” (CP (α) Lys256, Arg260, Arg266)” had a fold reduction of the affinity against the wild type proteins of more than 25 fold.
